Read-outs that look alike come from different tables or passages of the source. Bridges are numbered along the chain shown (N, C = ends). Where no end group is shown, it is not given here.
Assays:
[1] = molecular target: T1, rat albumin (rat, UniProt P02770 25-608); assay: SPR (BIAcore), albumin immobilized
T1 construct: bought (Sigma); also called rat SA; RSA
From the text: (§1) Binding affinities between SA peptides and album were obtained using a BIAcore 3000 (BIAcore, Inc., Piscataway, N.J.). Albumin was captured in a CM5 chip using amine coupling at approximately 5000 resonance units (RU).
(§2) The signal from an injection passing over an uncoupled cell was subtracted from that of an immobilized cell to generate sensongrams corresponding to the amount of peptide bound as a function of time. The running buffer, PBS containing 0.05% TWEEN-20T, was used for all sample dilutions. BIAcore kinetic evaluation software (v 3.1) was used to determine the dissociation constant (Kd) from the association and dissociation rates, using a one to one binding model.

[2] = molecular target: T2, rabbit albumin (rabbit, UniProt P49065 25-608); assay: SPR (BIAcore), albumin immobilized
T2 construct: bought (Sigma); also called rabbit SA; BuSA
T2 sequence (P49065 25-608 limits assumed): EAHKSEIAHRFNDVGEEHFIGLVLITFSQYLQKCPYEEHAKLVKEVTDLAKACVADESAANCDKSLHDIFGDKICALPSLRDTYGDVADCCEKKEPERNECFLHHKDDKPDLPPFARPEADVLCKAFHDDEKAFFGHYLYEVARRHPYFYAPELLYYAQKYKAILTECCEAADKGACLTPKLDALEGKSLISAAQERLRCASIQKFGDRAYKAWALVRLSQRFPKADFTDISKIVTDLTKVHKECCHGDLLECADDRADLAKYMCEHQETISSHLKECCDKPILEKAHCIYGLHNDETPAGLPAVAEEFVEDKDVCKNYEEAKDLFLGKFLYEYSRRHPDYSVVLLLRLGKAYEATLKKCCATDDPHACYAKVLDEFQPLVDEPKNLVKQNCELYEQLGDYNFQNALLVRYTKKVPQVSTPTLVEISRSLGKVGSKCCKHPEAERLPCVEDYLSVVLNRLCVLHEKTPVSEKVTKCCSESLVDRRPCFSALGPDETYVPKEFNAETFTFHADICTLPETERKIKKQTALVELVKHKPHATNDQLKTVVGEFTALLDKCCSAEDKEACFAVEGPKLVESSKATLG
From the text: as §1, §2

[3] = molecular target: T3, human albumin (human, UniProt P02768 25-609); assay: SPR (BIAcore), albumin immobilized
T3 construct: bought (Sigma); also called human SA; HuSA
From the text: as §1, §2

[4] = molecular target: T1, rat albumin; assay: SA08b competition ELISA
[5] = molecular target: T2, rabbit albumin; assay: SA08b competition ELISA
[6] = molecular target: T4, mouse albumin (mouse, UniProt P07724 25-608); assay: SA08b competition ELISA
T4 construct: bought (Sigma); also called MSA; MuSA
T4 sequence (P07724 25-608 limits assumed): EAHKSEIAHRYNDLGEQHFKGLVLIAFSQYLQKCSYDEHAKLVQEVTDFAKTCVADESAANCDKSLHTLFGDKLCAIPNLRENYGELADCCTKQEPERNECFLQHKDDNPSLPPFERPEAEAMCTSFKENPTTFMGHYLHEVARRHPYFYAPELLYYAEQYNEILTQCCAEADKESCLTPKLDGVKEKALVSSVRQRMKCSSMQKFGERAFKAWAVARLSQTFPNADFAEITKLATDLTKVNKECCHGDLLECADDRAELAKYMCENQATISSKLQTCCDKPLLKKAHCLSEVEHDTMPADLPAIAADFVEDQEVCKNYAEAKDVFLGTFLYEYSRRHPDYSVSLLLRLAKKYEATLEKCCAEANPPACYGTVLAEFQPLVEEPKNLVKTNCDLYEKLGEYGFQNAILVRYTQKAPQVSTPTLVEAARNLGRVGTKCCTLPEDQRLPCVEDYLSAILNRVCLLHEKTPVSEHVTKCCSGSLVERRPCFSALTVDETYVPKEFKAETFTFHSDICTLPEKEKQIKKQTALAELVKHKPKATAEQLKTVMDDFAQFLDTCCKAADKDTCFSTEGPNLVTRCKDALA

[7] = molecular target: T4, mouse albumin; assay: SA08b peptide competition ELISA
[8] = molecular target: T2, rabbit albumin; assay: SA08b competition ELISA; remark: listed apart in the source
[9] = molecular target: T2, rabbit albumin; assay: SA08b peptide competition ELISA
[10] = molecular target: T2, rabbit albumin; assay: SA08b competition ELISA; remark: listed apart in the source
[11] = molecular target: T1, rat albumin; assay: SA08b competition ELISA; remark: listed apart in the source
[12] = molecular target: T2, rabbit albumin; assay: SA08b competition ELISA; remark: listed apart in the source
[13] = molecular target: T4, mouse albumin; assay: SA08b competition ELISA; remark: listed apart in the source
[14] = molecular target: T1, rat albumin; assay: phage ELISA

T1 sequence (P02770 25-608 limits assumed): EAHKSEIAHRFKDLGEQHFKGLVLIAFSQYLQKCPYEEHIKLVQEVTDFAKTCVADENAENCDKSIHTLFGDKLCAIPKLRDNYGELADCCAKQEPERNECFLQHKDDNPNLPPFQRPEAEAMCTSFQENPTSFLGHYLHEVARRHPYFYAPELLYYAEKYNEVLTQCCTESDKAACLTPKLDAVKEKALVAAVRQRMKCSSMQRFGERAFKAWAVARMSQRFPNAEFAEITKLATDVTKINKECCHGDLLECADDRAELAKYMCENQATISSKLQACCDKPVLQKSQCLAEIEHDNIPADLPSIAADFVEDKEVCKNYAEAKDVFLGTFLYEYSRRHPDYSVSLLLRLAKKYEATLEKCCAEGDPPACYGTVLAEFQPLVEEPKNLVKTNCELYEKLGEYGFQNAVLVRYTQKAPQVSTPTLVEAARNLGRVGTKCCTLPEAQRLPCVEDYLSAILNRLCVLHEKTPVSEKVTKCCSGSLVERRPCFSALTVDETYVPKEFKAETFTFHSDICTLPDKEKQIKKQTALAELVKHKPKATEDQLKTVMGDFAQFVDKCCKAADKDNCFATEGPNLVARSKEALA

Ac-QGLIGDICLPRWGCLWGDSVK-NH2 (disulfide 8-14 (inferred), synthetic; disulfide oxidised) [SA08]
Kd [1]: 158 nM | Kd [2]: 108 nM | Kd [3]: 858 nM | IC50 [4]: 68 nM | IC50 [5]: 63 nM | IC50 [6]: 10 nM | IC50 [7]: 12 nM

Ac-QRLIEDICLPRWGCLWEDDF-NH2 (disulfide 8-14 (inferred), synthetic) [SA20]
IC50 [8]: 260 nM

Ac-EDICLPRWGCLWED-NH2 (disulfide 4-10 (inferred), synthetic) [SA25]
IC50 [8]: 2730 nM

Ac-LIEDICLPRWGCLWED-NH2 (disulfide 6-12 (inferred), synthetic) [SA23]
IC50 [8]: 360 nM

MEDICLPRWGCLWED-NH2 (disulfide 5-11 (inferred), synthetic; disulfide oxidised) [SA05]
IC50 [4]: 161 nM | IC50 [5]: 804 nM | IC50 [6]: 6 nM

Ac-IEDICLPRWGCLWED-NH2 (disulfide 5-11 (inferred), synthetic) [SA24]
IC50 [8]: 1380 nM

GEWWEDICLPRWGCLWEEED-NH2 (disulfide 8-14 (inferred), synthetic) [SA15]
Kd [1]: 150 nM | Kd [2]: 65 nM | Kd [3]: 878 nM | IC50 [9]: 13 nM | IC50 [7]: 5 nM

Ac-MEDICLPRWGCLWEDD-NH2 (disulfide 5-11 (inferred), synthetic; disulfide oxidised) [SA11]
IC50 [4]: 232 nM | IC50 [5]: 1210 nM | IC50 [6]: 17 nM

Ac-RLIEDICLPRWGCLWE-NH2 (disulfide 7-13 (inferred), synthetic) [SA29]
IC50 [8]: 400 nM

ICLPRWGCLW-NH2 (disulfide 2-8 (inferred), synthetic) [SA18]
IC50 [8]: 125000 nM

Ac-IEDICLPRWGCLWE-NH2 (disulfide 5-11 (inferred), synthetic) [SA30]
IC50 [8]: 1800 nM

DICLPRWGCL-NH2 (disulfide 3-9 (inferred), synthetic) [SA19]
IC50 [8]: 24500 nM

Ac-DICLPRWGCLWED-NH2 (disulfide 3-9 (inferred), synthetic) [SA26]
IC50 [8]: 3120 nM | fold improvement of IC50 over the core sequence (SA34 and SA19) [10]: ~8.6 fold

QRLMEDICLPRWGCLWEDDF-NH2 (disulfide 8-14, synthetic; disulfide oxidised) [SA06]
Kd [1]: 229 nM | Kd [2]: 143 nM | IC50 [4]: 68 nM | IC50 [5]: 128 nM | IC50 [6]: 8 nM | IC50 [9]: 130 nM | IC50 [7]: 6 nM | IC50 [11]: 68 nM | IC50 [12]: 128 nM | IC50 [13]: 8 nM

Ac-RLIEDICLPRWGCLWED-NH2 (disulfide 7-13 (inferred), synthetic) [SA22]
IC50 [8]: 430 nM | fold improvement of IC50 over the core sequence (SA34 and SA19) [10]: 60 fold

Ac-RLIEDICLPRWGCL-NH2 (disulfide 7-13 (inferred), synthetic) [SA33]
IC50 [8]: 4310 nM | fold improvement of IC50 over the core sequence (SA34 and SA19) [10]: ~6 fold

Ac-DICLPRWGCL-NH2 (disulfide 3-9 (inferred), synthetic) [SA34]
IC50 [8]: 28200 nM

DLCLRDWGCLW (not fully specified (C-terminus); cysteine pairing not given here) [RC]
binding result [14]: binds

Ac-EDICLPRWGCLW-NH2 (disulfide 4-10 (inferred), synthetic) [SA32]
IC50 [8]: 2170 nM

Ac-RLIEDICLPRWGCLW-NH2 (disulfide 7-13 (inferred), synthetic) [SA31]
IC50 [8]: 200 nM

Ac-ICLPRWGCLWED-NH2 (disulfide 2-8 (inferred), synthetic) [SA27]
IC50 [8]: 86700 nM

B1: SA07 (peptide)
peptide: QGLIGDICLPRWGCLWGDSV-NH2
modifications: disulfide 8-14 (inferred)
notes: synthetic; disulfide oxidised; printed ...GDSV here
IC50 [4]: 35 nM | IC50 [5]: 30 nM | IC50 [6]: 6 nM

Ac-RLMEDICLPRWGCLWEDD-NH2 (disulfide 7-13 (inferred), synthetic; disulfide oxidised) [SA10]
IC50 [4]: 77 nM | IC50 [5]: 86 nM

Ac-RLIEDICLPRWGCLWEDD-NH2 (disulfide 7-13 (inferred), synthetic; disulfide oxidised) [SA21]
Kd [2]: 320 nM | IC50 [9]: 270 nM | IC50 [7]: 7 nM | IC50 [8]: 270 nM

Ac-RLMEDICLARWGCLWEDD-NH2 (disulfide 7-13 (inferred), synthetic; disulfide oxidised) [SA13]
IC50 [4]: 2480 nM | IC50 [5]: 3200 nM | IC50 [6]: 188 nM

Ac-MEDICLPRWGCLWED-NH2 (disulfide 5-11 (inferred), synthetic; disulfide oxidised) [SA12]
IC50 [4]: 205 nM | IC50 [5]: 1760 nM | IC50 [6]: 13 nM

Ac-EDICLPRWGCLWEDD-NH2 (disulfide 4-10 (inferred), synthetic; disulfide oxidised) [SA09]
IC50 [4]: 258 nM | IC50 [5]: 1690 nM | IC50 [6]: 6 nM

DICLPRWGCLW-NH2 (disulfide 3-9 (inferred), synthetic; disulfide oxidised) [SA04]
IC50 [4]: 787 nM | IC50 [5]: 8540 nM | IC50 [6]: 40 nM | IC50 [8]: 8540 nM

From patent US20070202045A1 (published 2007)
